In US20250145977A1 (THERIPION, published 2025):

Molecular target: T1, Human CD40 ligand (BioLegend) (human, UniProt P29965 113-261, limits assumed)
T1 construct: Coated on the ELISA plate at 2 ug/ml; also called CD154; gp39
T1 sequence (looked up): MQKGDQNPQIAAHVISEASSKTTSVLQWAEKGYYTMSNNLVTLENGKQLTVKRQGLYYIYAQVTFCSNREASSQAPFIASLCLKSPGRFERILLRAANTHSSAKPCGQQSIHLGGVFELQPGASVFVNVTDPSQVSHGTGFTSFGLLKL
Test: ELISA on plate-immobilized human CD40 ligand (2 ug/ml coat); serial dilutions of HEK293 transfection supernatant; detection with HRP goat anti-human IgG Fc; x axis is fold dilution, no concentration given

B1: [hCD40 EC]-(g4s)4-[SSShinge-P238S Fc] (wild-type CD40-Fc) (Fc fusion)
chain: EPPTACREKQYLINSQCCSLCQPGQKLVSDCTEFTETECLPCGESEFLDTWNRETHCHQHKYCDPNLGLRVQQKGTSETDTICTCEEGWHCTSEACESCVLHRSCSPGFGVKQIATGVSDTICEPCPVGFFSNVSSAFEKCHPWTSCETKDLVVQQAGTNKTDVVCGPDLSGGGGSGGGGSGGGGSGGGGSTGLEPKSSDKTHTSPPSPAPELLGGSSVFLFPPKPKDTLMISRTPEVTCVVVDVSHEDPEVKFNWYVDGVEVHNAKTKPREEQYNSTYRVVSVLTVLHQDWLNGKEYKCKVSNKALPASIEKTISKAKGQPREPQVYTLPPSRDELTKNQVSLTCLVKGFYPSDIAVEWESNGQPENNYKTTPPVLDSDGSFFLYSKLTVDKSRWQQGNVFSCSVMHEALHNHYTQKSLSLSPGK
notes: Tested as HEK293 transfection supernatant; also called CD40WT-Fc
Question: Does B1 bind?
Answer: Result: binds

B2: hVK3LP-[hCD40EC E64Y-K81T-P85Y]-(g4s)4-[SSShinge-P238S Fc]-NGS-[PON1 Q192K] (Fc fusion)
chain: EPPTACREKQYLINSQCCSLCQPGQKLVSDCTEFTETECLPCGYSEFLDTWNRETHCHQHTYCDYNLGLRVQQKGTSETDTICTCEEGWHCTSEACESCVLHRSCSPGFGVKQIATGVSDTICEPCPVGFFSNVSSAFEKCHPWTSCETKDLVVQQAGTNKTDVVCGPDLSGGGGSGGGGSGGGGSGGGGSTGLEPKSSDKTHTSPPSPAPELLGGSSVFLFPPKPKDTLMISRTPEVTCVVVDVSHEDPEVKFNWYVDGVEVHNAKTKPREEQYNSTYRVVSVLTVLHQDWLNGKEYKCKVSNKALPASIEKTISKAKGQPREPQVYTLPPSRDELTKNQVSLTCLVKGFYPSDIAVEWESNGQPENNYKTTPPVLDSDGSFFLYSKLTVDKSRWQQGNVFSCSVMHEALHNHYTQKSLSLSPGKVDGASSPVNVSSPSVQDILFRNHQSSYQTRLNALREVQPVELPNCNLVKGIETGSEDLEILPNGLAFISSGLKYPGIKSFNPNSPGKILLMDLNEEDPTVLELGITGSKFDVSSFNPHGISTFTDEDNAMYLLVVNHPDAKSTVELFKFQEEEKSLLHLKTIRHKLLPNLNDIVAVGPEHFYGTNDHYFLDPYLKSWEMYLGLAWSYVVYYSPSEVRVVAEGFDFANGINISPDGKYVYIAELLAHKIHVYEKHANWTLTPLKSLDFNTLVDNISVDPETGDLWVGCHPNGMKIFFYDSENPPASEVLRIQNILTEEPKVTQVYAENGTVLQGSTVASVYKGKLLIGTVFHKALYCEL
notes: Tested as unpurified HEK293 transfection supernatant; also called CD40TM-Fc-P1-K; CD40-Fc-PON1 fusion protein
Question: Does B2 bind?
Answer: Result: binds
